Biological target: recombinant YFV E protein (Meridian Life Science) (Yellow fever virus, UniProt P03314 286-679)
Test: ELISA

Sequence of recombinant YFV E protein (Meridian Life Science) (P03314 286-679): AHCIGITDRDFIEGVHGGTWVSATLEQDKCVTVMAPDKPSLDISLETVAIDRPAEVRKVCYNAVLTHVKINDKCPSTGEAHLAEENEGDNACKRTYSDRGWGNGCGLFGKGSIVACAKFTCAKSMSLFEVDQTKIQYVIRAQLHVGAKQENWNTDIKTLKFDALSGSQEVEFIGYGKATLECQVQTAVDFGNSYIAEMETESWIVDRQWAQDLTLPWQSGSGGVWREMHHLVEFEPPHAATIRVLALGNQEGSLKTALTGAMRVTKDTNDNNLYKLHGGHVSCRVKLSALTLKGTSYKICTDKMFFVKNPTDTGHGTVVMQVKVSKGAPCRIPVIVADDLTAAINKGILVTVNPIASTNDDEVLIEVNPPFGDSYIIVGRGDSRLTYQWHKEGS

B1: human monoclonal antibody YFV-136 (antibody, V domains shown)
VH: QVQLQESGPGLVKPSGTLSLTCAVSGGSISSSNWWSWVRQPPGKGLEWIGDIYHSGSTSYNPSLKSRVTISVDRSKNQFSLKLSSVTAADTAVYYCARAPLVNWYYFDYWGQGTLVTVSS
VL: QSVLTQPPSVSAAPGQKVTISCSGSSSNIGNNYVSWYQQLPGTAPKLLIYDNNKGPSGIPDRFSGSKSGTSATLGITGLQTGDEADYYCGTWDTSLSAGRVFGGGTKLTVL
- EC50: 0.27 µg/mL

B2: human monoclonal antibody YFV-121 (antibody, V domains shown)
VH: EVQLVESGGGLVQPGGSLRLSCAASGFTFSSYSMNWVRQAPGKGLEWVSYISSSSRTIYYADSVKGRFTISRDNAKNSLDLQMNSLRDEDTAVYYCAREVSSHGYRYWGQGTLVTVSS
VL: EIVLTQSPATLSLSPGERATLSCRASQSVSSFLAWYQQKPGQAPRLLIYDASNRATGIPARFTGSGSGTDFTLTISSLEPEDFAVYYCQQRSNWPPWTFGQGTKVEIK
- EC50: 0.311 µg/mL

From US20230072640A1 (published 2023)
